These results are taken from publication PMC8607881 (Nature, 2021).

For orientation: stoichiometry N means the number of molecules, sites or subunits per partner or assembly. One may read the Kd as the free concentration of one partner at which half of the binding sites on the other are occupied at equilibrium, for simple one-to-one binding.

The chains are these.
B1: C-terminally truncated bovine GRK1 (residues 1-535) with C-terminal His6 (enzyme, UniProt P28327 1-535, looked up)
chain: MDFGSLETVVANSAFIAARGSFDASSGPASRDRKYLARLKLPPLSKCEALRESLDLGFEGMCLEQPIGKRLFQQFLRTHEQHGPALQLWKDIEDYDTADDALRPQKAQALRAAYLEPQAQLFCSFLDAETVARARAGAGDGLFQPLLRAVLAHLGQAPFQEFLDSLYFLRFLQWKWLEAQPMGEDWFLDFRVLGRGGFGEVFACQMKATGKLYACKKLNKKRLKKRKGYQGAMVEKKILAKVHSRFIVSLAYAFETKTDLCLVMTIMNGGDIRYHIYNVDEDNPGFQEPRAIFYTAQIVSGLEHLHQRNIIYRDLKPENVLLDDDGNVRISDLGLAVELKAGQTKTKGYAGTPGFMAPELLLGEEYDFSVDYFALGVTLYEMIAARGPFRARGEKVENKELKQRVLEQAVTYPDKFSPASKDFCEALLQKDPEKRLGFRDGSCDGLRTHPLFRDISWRQLEAGMLTPPFVPDSRTVYAKNIQDVGAFSTVKGVAFEKADTEFFQEFASGTCPIPWQEEMIETGVFGDLNVWRPDG
B3: light activated rhodopsin (Rho*) (receptor, bovine, UniProt P02699 1-348, looked up)
chain: MNGTEGPNFYVPFSNKTGVVRSPFEAPQYYLAEPWQFSMLAAYMFLLIMLGFPINFLTLYVTVQHKKLRTPLNYILLNLAVADLFMVFGGFTTTLYTSLHGYFVFGPTGCNLEGFFATLGGEIALWSLVVLAIERYVVVCKPMSNFRFGENHAIMGVAFTWVMALACAAPPLVGWSRYIPEGMQCSCGIDYYTPHEETNNESFVIYMFVVHFIIPLIVIFFCYGQLVFTVKEAAAQQQESATTQKAEKEVTRMVIIMVIAFLICWLPYAGVAFYIFTHQGSDFGPIFMTIPAFFAKTSAVYNPVIYIMMNKQFRNCMVTTLCCGKNPLGDDEASTTVSKTETSQVAPA
modifications: all-trans retinal (Meta II state)

Assay [1] deals with B3. Kind of assay: cross-linking.
The target of assay [2] is B1. Briefly: cross-linking.
The target in assay [3] is biotinylated Avi-tagged GRK1 (residues 1-535, His6-Avi), Sgv-bound (Bos taurus (Bovine)., UniProt P28327, biotin on the Avi-tag). Kind of assay: ELISA.

Regarding B1, the “stoichiometry N” value in assay [1] was 1.

B2: hyper-phosphorylated rhodopsin (light activated) (receptor, bovine, UniProt P02699 1-348, looked up)
chain: MNGTEGPNFYVPFSNKTGVVRSPFEAPQYYLAEPWQFSMLAAYMFLLIMLGFPINFLTLYVTVQHKKLRTPLNYILLNLAVADLFMVFGGFTTTLYTSLHGYFVFGPTGCNLEGFFATLGGEIALWSLVVLAIERYVVVCKPMSNFRFGENHAIMGVAFTWVMALACAAPPLVGWSRYIPEGMQCSCGIDYYTPHEETNNESFVIYMFVVHFIIPLIVIFFCYGQLVFTVKEAAAQQQESATTQKAEKEVTRMVIIMVIAFLICWLPYAGVAFYIFTHQGSDFGPIFMTIPAFFAKTSAVYNPVIYIMMNKQFRNCMVTTLCCGKNPLGDDEASTTVSKTETSQVAPA
modifications: 6–8 phosphates incorporated per rhodopsin (7 possible sites in the cytoplasmic tail)
B2: the binding result in assay [2] is “binds”.

In the case of B3, the binding result in assay [2] is recorded as “binds”.

B4: Fab1 (Fab, V domains shown)
VH: EVQLVESGGGLVQPGGSLRLSCAASGFNLYSSSIHWVRQAPGKGLEWVASIYSYYGSTSYADSVKGRFTISADTSKNTAYLQMNSLRAEDTAVYYCARYEGWWWANTYALDYWGQGTLVTVSS
VL: DIQMTQSPSSLSASVGDRVTITCRASQSVSSAVAWYQQKPGKAPKLLIYSASSLYSGVPSRFSGSRSGTDFTLTISSLQPEDFATYYCQQYYEWLSLFTFGQGTKVEIK
B4: the Kd in assay [3] was roughly 2.5 nM.

B5: Fab6 (Fab, V domains shown)
VH: EVQLVESGGGLVQPGGSLRLSCAASGFNFSSYSIHWVRQAPGKGLEWVAYISSYYGSTYYADSVKGRFTISADTSKNTAYLQMNSLRAEDTAVYYCARHEYGWWNDRWGLDYWGQGTLVTVSS
VL: DIQMTQSPSSLSASVGDRVTITCRASQSVSSAVAWYQQKPGKAPKLLIYSASSLYSGVPSRFSGSRSGTDFTLTISSLQPEDFATYYCQQSSWYGPFTFGQGTKVEIK
B5 yielded a Kd in assay [3] of roughly 2.5 nM.
